Experimental data reported in patent publication US20190202914A1 (HARBOUR BIOMED SHANGHAI, published 2019).
Residue numbers refer to the chain shown, from its start. Numbers in names are those of the source.

T1: human CTLA-4 expressed on cells (293-hCTLA-4 cells; CTLA-4-expressing CHO-K1 cells) (human, UniProt P16410 36-223)
T1 construct: The same id is used for native CTLA-4 on PBMC in the IL-2 assay; also called CD152; cell-expressed CTLA-4
T1 sequence: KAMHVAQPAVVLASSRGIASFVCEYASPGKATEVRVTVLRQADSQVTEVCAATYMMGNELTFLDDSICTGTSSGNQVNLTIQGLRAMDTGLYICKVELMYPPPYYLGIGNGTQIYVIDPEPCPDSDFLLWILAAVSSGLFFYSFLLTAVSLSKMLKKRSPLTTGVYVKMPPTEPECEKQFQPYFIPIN

T2: cyno CTLA-4 expressed on 293 cells (293-cynoCTLA-4 cells) (cyno, UniProt G7PL88 36-223)
T2 construct: also called cynomolgus CTLA-4
T2 sequence: T1 sequence with S14N, L106M

T3: Recombinant human CTLA-4-his protein (CT4-H5229, Acro Bio) (human, UniProt P16410 36-161)
T3 construct: extracellular domain; Bought protein; also called Human CTLA-4^ECD-his; not shown: his tag
T3 sequence (looked up): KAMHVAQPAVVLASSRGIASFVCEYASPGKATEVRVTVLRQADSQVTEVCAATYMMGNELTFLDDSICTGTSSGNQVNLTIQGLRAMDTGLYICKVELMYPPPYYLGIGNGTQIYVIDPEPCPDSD

B1: CL22-dPTM′ (antibody, human IgG1, V domains shown)
VH: EVQLVESGGGLIQPGGSLRLSCAASGFTVRNNYMSWVRQAPGKGLEWVSVIYSGGSITYADSVKGRFTISRDNSKNTLYLQMNSLRAEDTAVYYCARAVPHAPSAFDIWGQGTMVTVSS
notes: HCAb variant with PTM removal
B2: CL30-dPTM′ (antibody, human IgG1, V domains shown)
VH: B1 VH with R30S, N31R, N32I, T58Y, N73S, L78V, A105N, I108K, M114L
notes: HCAb variant with PTM removal
B3: CL30 (antibody, human IgG1, V domains shown)
VH: EVQLEETGGDLIQPGGSLRLSCTASGFNVSRIYMSWVRQAPGKGLEWVSVIYSGGSIYYADSVRGRFTISRDSSTNTVYLQMNSLRAEDSAVYYCARAVPHAPSNFDKWGQGTRVTVSS
notes: Human heavy-chain-only antibody (HCAb): two heavy chains, no light chain; also called clone 30
B4: CL22 (antibody, human IgG1, V domains shown)
VH: B1 VH with S7T, A24V, V37A, A40V, T68I, K75N, S84G
notes: Human heavy-chain-only antibody (HCAb): two heavy chains, no light chain; also called clone 22
B5: CL5 (antibody, human IgG1, V domains shown)
VH: EVQLAETGGGLIQPGGSLRLSCAVSGFNVSKNYMSWVRQVPGKGLEWVAVVYSGGSKTYADSVKGRFILSRDNSDNTLYLQMNNLRAEDTAVYYCARAVPHSPSSFDIWGQGTMVTVSS
notes: Human heavy-chain-only antibody (HCAb): two heavy chains, no light chain; also called HCAb clone 5
B6: CL5-dPTM′ (antibody, human IgG1, V domains shown)
VH: B1 VH with A24V, R30S, N31K, I51V, I57K, A102S, A105S
notes: HCAb variant with PTM removal
B7: CL25-dPTM (antibody, human IgG1, V domains shown)
VH: B1 VH with S7T, R30S, N31S, I57T, T58Y, N83S, A102S, I108R, M114L
notes: HCAb variant with PTM removal
B8: CL5-dPTM (antibody, human IgG1, V domains shown)
VH: B5 VH with N28T
notes: HCAb variant with PTM removal
B9: CL22-dPTM (antibody, human IgG1, V domains shown)
VH: B1 VH with S7T, A24V, V37A, A40V, T68I, S84G
notes: HCAb variant with PTM removal
B10: CL25-dPTM′ (antibody, human IgG1, V domains shown)
VH: B1 VH with R30S, N31S, I57T, T58Y, A102S, I108R, M114L
notes: HCAb variant with PTM removal
B11: CL11-dPTM′ (antibody, human IgG1, V domains shown)
VH: B1 VH with R30S, N31R, N32I, T58Y, N73S, L78V, H101S, A105S
notes: HCAb variant with PTM removal
B12: CL3 (antibody, human IgG1, V domains shown)
VH: EVQLVEIGGGEIQPGGSLRLSCAASGFNVSKNYMSWVRQAPGKGLEWVSVIYSGGGTEYAASVKGRFNISRDSSKNMLYLQMNNLRAEDTAVYYCARAVPRPHGTDIWGQGTMVTVSS
notes: Human heavy-chain-only antibody (HCAb): two heavy chains, no light chain
B13: CL25 (antibody, human IgG1, V domains shown)
VH: EVQLVETGGGLIQPGGSLRLSCAASGFTVSSNYMSWVRQAPGKGLEWVSVIYSGGSTYYADSVKGRFTISRDNSKNTLYLQMSNLTAEDTAVYYCARAVPHSPSAFDRWGQGTLVTVSS
notes: Human heavy-chain-only antibody (HCAb): two heavy chains, no light chain; also called clone25
B14: CL5′-dPTM′ (antibody, human IgG1, V domains shown)
VH: B1 VH with A24V, R30S, N31K, I51V, I57K, A102S, A105S
notes: HCAb variant with PTM removal
B15: CL5′-eA-dPTM′ (antibody, human IgG1, V domains shown)
VH: B1 VH with A24V, R30S, N31K, I51V, I57K, A102S, A105S
notes: HCAb variant with PTM removal and the eA (S239D, I332E) Fc

Each binder was assayed against T1, human CTLA-4 expressed on cells … (assay: flow cytometry on 293F-hCTLA-4 cells).

Row | binding result | Binder
1 | binds | B1
2 | binds | B2

The binders below were run against T1, human CTLA-4 expressed on cells … (assay: cell-based blocking assay, flow cytometry: % blocking of biotinylated B7.1 ECD-Fc binding to 293-hCTLA-4 cells).
Procedure: Cell-Based Receptor-Ligand Binding assay was performed to determine the ability of the anti-CTLA-4 antibodies to block the binding of CTLA-4 to its ligands B7.1. Recombinant B7.1^ECD-Fc protein (B71-H5259, Acro Bio) was biotinylated using EZ-LINK NHS-PEG12-Biotin (Thermo Scientific#21312) according to the manufacturer's instruction. Biotinylated B7.1^ECD-Fc protein was concentrated and free label removed by using Amicon centrifugal filter (10 kDa cut off). The extracellular domain of B7.1 corresponded to amino acids Val35-Asn242 of Uniprot database protein P33681.
The culture medium was aspirated, and the cells were washed twice with PBS. The cells were treated with enzyme-free cell dissociation solution (Versene solution, Invitrogen) and collected. Dissociation solution was neutralized by the addition of 8 mL of culture medium, and cell counts were determined. Cells were centrifuged at 300 g for 5 minutes and resuspended in blocking buffer (containing 2% BSA, pH 7.4 PBS buffer, w/v) at 1×10⁶ cells/mL. The cells were blocked for 15 minutes at 37° C. Meanwhile, the wells of 96-well round-bottom plates were blocked with 200 μL of blocking buffer for 1 hour at 37° C. The blocking buffer was discarded, and 200 μL of cells were dispensed to each well of the 96-well plates (2×10⁵ cells/well). The plates were centrifuged at 500 g for 5 minutes, and the supernatants were discarded. The cells were resuspended in 100 μL of anti-CTLA-4 antibodies prepared in blocking buffer with varying concentrations. 100 μL of biotinylated B7.1 ECD-Fc (60 μg/mL in blocking buffer) were added to each well of 96-well plate and mixed by shaking gently. The plates were incubated at 4° C. for 90 minutes and washed twice with 200 μL blocking buffer. The blocking buffer was discarded, and the cells were resuspended in 100 μL of streptavidin-Alexa 488 solution (Invitrogen, 1:500 in blocking buffer) and incubated at 4° C. for 1 hour. The plates were washed three times with blocking buffer and added with 200 μL of blocking buffer.
The mean fluorescence intensity (MFI) was determined using FACS Calibur (BD).

Row | IC50 (read off the curve) [nM] | Binder
3 | ~10 | B3
4 | ~10 | B4
5 | ~10 | B5

Each binder was assayed against T1, human CTLA-4 expressed on cells … (assay: flow cytometry (MFI) on 293F-hCTLA-4 cells, Alexa 488 anti-human (H+L) detection).
Procedure: Cell-based binding assay was performed to determine the binding ability of the anti-CTLA-4 antibody variants with PTM removal to human CTLA-4. The assay procedure was similar to that described in Example 3. […] Cells were centrifuged and blocked in blocking buffer (containing 2% BSA, pH 7.4 PBS buffer, w/v) at 1×10⁶ cells/mL for 15 minutes at 37° C. 200 μL of cells were dispensed to each well of the 96-well plates (2×10⁵ cells/well). The plates were centrifuged and the supernatants were discarded. The cells were resuspended in 100 μL of anti-CTLA-4 antibodies prepared in blocking buffer. The plates were incubated at 4° C. for 90 minutes and washed twice. After the blocking buffer was discarded, the cells were resuspended in 100 μL of Alexa 488-labeled anti-human (H+L) antibody (1:500, Invitrogen) and incubated at 4° C. for 1 hour. The cells were washed and resuspended in 200 μL of blocking buffer. The mean fluorescence intensity (MFI) was determined using FACS Calibur (BD).

Row | EC50 (read off the curve) [nM] | Binder
6 | ~1 | B6
7 | ~1 | B7
8 | ~1 | B8
9 | ~1 | B9
10 | ~1 | B10
11 | ~1 | B11

These binders were tested against T2, cyno CTLA-4 expressed on 293 cells … (assay: flow cytometry (MFI) on 293 cells expressing cynomolgus CTLA-4, Alexa 488 anti-human (H+L) detection).
Procedure: (§1) The culture medium was aspirated, and the cells were washed twice with HBSS (Hanks Balanced Salt Solution, Invitrogen). The cells were treated with enzyme-free cell dissociation solution (Versene solution, Invitrogen) and collected. The cells were then washed twice with HBSS, cell counts were determined, and cells were resuspended with HBSS at 2×10⁶ cells/mL. BSA was added to the cell suspension to a final concentration of 1%, and the cells were blocked for 30 minutes on ice and then washed twice with HBSS. The cells were collected after centrifugation and resuspended in FACS buffer (HBSS+1% BSA, v/v) at 2×10⁶ cells/mL. 100 μL of the cell suspension were then added to each well of a 96-well plate. 100 μL of purified anti-CTLA-4 antibodies from Example 2 or control antibodies were added to each well of the 96-well plate and incubated for 1 hour on ice, wherein the heavy chain and light chain of the Ipilimumab analogue had amino acid sequences of SEQ ID NO.: 199 and SEQ ID NO.: 200, respectively. Cells were washed twice with FACS buffer, and 100 μL of Alexa 488-labeled anti-human (H+L) antibody (Invitrogen) were added to the 96-well plate and incubated for 1 hour on ice. The samples were washed three times with FACS buffer, and 100 μL of fixation buffer (containing 4% paraformaldehyde, v/v) were added to each well and incubated for 10 minutes. The cells were then washed twice with FACS buffer and resuspended in 100 μL of FACS buffer.

Row | EC50 (read off the curve) [nM] | Binder
12 | ~1 | B12
13 | ~1 | B3
14 | ~1 | B4
15 | ~1 | B5
16 | ~1 | B13

Each binder was assayed against T1, human CTLA-4 expressed on cells … (assay: cell-based blocking assay, flow cytometry: % blocking of biotin labeled B7.1 binding to 293-hCTLA-4 cells).

Row | IC50 (read off the curve) [nM] | Binder
17 | ~7 | B6
18 | ~7 | B7
19 | ~7 | B8
20 | ~7 | B9
21 | ~7 | B10
22 | ~7 | B11

The binders below were run against T1, human CTLA-4 expressed on cells … (assay: flow cytometry (MFI) on 293 cells expressing human CTLA-4, Alexa 488 anti-human (H+L) detection).
Procedure: as §1

Row | EC50 (read off the curve) [nM] | Binder
23 | ~2 | B12
24 | ~2 | B3
25 | ~2 | B4
26 | ~2 | B5
27 | ~2 | B13

Each binder was assayed against T3, Recombinant human CTLA-4-his protein … (assay: SPR, Biacore T200, antibody immobilised, CTLA-4-his injected, 1:1 model).
Procedure: Dissociation constants were determined by Biacore T200 (GE Healthcare), following the specifications of the instrument provided by the manufacturer. Briefly, 1 μg/mL diluted anti-CTLA-4 antibodies in 10 mM NaOAc (pH 5.0, sigma) were immobilized on flow cell of a Series S CMS sensor chip. Remaining active ester groups were blocked with 1 M ethanolamine (pH 8.5). With HBS-EP+ as the running buffer, recombinant human CTLA-4-his (CT4-H5229, AcroBio) and cynoCTLA-4-his proteins (CT4-05227, AcroBio) with five serial diluted concentrations were injected over flow cells at 30 μL/min with the association time of 180 s. Buffer flow was maintained for dissociation for 600s.

Row | Kd [nM] | koff [s⁻¹] | kon [M⁻¹ s⁻¹] | Binder
28 | 0.0428 | 0.000229 | 5.35e+06 | B14
29 | 0.014 | 7.58e-05 | 5.4e+06 | B15
